{"source": "paper PMC3115060", "about": "“Structural Analysis of a Novel Class of R–M Controller Proteins: C.Csp231I from Citrobacter sp. RFL231” (Journal of Molecular Biology, 2011)", "molecular_target": "the molecule itself", "assay": "AUC; sedimentation velocity, 10-80 uM protein, 50 mM Tris-HCl pH 8.0, 100 mM NaCl, 1 mM Na2-EDTA, 20 C, 40,000 rpm, 280 nm; self-association (dimer)", "data": [{"protein": "C.Csp231I controller protein (natural protein, Citrobacter sp. RFL231, UniProt Q32WH4 1-98, looked up, C.Csp231I controller protein of the Csp231I restriction-modification system, Citrobacter sp; RFL231; native untagged protein, 98 amino acids (Mr 11,360), expressed from the csp231IC gene; Homodimer in solution and in both crystal forms; also called C-protein; source: E. coli BL21(DE3) Gold, pET-11a, purified (HiTrap heparin, HiTrap SP, Sephacryl S-100 HR)) MLIRRLKDARLRAGISQEKLGVLAGIDEASASARMNQYEKGKHAPDFEMANRLAKVLKIPVSYLYTPEDDLAQIILTWNELNEQERKRINFYIRKKAK", "values": [{"measurement": "stoichiometry N", "value": 2}]}]}
